Laboratory results published in US20170355757A1 (Regeneron, published 2017).
Blank lines part the entries; values can stand above or below the binder they belong to.

Experiments:
Human C5 [1] = biological target: T1, Human C5 (human, UniProt P01031 19-1676); assay: SPR, mAb captured by anti-hFc, 37C
T1 construct: The natural protein has a beta and an alpha chain; also called complement factor 5; complement component 5
Method: (§1) Equilibrium dissociation constants (KD values) for C5 binding to purified anti-C5 antibodies were determined using a real-time surface plasmon resonance biosensor assay on a Biacore T200 instrument. The Biacore sensor surface was derivatized by amine coupling with a monoclonal mouse anti-human Fc antibody (GE Healthcare, # BR-1008-39) to capture anti-C5 antibodies expressed with human Fc constant regions. Biacore binding studies were conducted in HBST running buffer (0.01M HEPES pH 7.4, 0.15M NaCl, 3 mM EDTA, 0.05% v/v Surfactant P20).
(§2) Human C5 was obtained from a commercial source (EMD). Other C5 reagents were expressed with a C-terminal myc-myc-hexahistidine tag (subsequently referred to as C5-mmh). […] Association of all the C5 reagents to each of the captured monoclonal antibodies was monitored for 3 minutes and their dissociation in HBST running buffer was monitored for 8 minutes. All the binding kinetics experiments were performed at either 25° C. or 37° C. Kinetic association (kₐ) and dissociation (kd) rate constants were determined by fitting the real-time sensorgrams to a 1:1 binding model using Scrubber 2.0c curve fitting software. Binding dissociation equilibrium constants (KD) and dissociative half-lives (t %) were calculated from the kinetic rate constants as: KD (M)=kd/kₐ and t_{1/2} (min)=In2/(60×kd)

Human C5 [2] = biological target: T1, Human C5; assay: SPR, mAb captured by anti-hFc, 25C
Method: as §1, §2

monkey C5-mmh = biological target: T2, monkey C5-mmh (monkey, UniProt P01031 19-1676 (human entry), limits assumed); assay: SPR, mAb captured by anti-hFc, 25C
T2 construct: Expressed with a C-terminal myc-myc-hexahistidine tag
T2 chain: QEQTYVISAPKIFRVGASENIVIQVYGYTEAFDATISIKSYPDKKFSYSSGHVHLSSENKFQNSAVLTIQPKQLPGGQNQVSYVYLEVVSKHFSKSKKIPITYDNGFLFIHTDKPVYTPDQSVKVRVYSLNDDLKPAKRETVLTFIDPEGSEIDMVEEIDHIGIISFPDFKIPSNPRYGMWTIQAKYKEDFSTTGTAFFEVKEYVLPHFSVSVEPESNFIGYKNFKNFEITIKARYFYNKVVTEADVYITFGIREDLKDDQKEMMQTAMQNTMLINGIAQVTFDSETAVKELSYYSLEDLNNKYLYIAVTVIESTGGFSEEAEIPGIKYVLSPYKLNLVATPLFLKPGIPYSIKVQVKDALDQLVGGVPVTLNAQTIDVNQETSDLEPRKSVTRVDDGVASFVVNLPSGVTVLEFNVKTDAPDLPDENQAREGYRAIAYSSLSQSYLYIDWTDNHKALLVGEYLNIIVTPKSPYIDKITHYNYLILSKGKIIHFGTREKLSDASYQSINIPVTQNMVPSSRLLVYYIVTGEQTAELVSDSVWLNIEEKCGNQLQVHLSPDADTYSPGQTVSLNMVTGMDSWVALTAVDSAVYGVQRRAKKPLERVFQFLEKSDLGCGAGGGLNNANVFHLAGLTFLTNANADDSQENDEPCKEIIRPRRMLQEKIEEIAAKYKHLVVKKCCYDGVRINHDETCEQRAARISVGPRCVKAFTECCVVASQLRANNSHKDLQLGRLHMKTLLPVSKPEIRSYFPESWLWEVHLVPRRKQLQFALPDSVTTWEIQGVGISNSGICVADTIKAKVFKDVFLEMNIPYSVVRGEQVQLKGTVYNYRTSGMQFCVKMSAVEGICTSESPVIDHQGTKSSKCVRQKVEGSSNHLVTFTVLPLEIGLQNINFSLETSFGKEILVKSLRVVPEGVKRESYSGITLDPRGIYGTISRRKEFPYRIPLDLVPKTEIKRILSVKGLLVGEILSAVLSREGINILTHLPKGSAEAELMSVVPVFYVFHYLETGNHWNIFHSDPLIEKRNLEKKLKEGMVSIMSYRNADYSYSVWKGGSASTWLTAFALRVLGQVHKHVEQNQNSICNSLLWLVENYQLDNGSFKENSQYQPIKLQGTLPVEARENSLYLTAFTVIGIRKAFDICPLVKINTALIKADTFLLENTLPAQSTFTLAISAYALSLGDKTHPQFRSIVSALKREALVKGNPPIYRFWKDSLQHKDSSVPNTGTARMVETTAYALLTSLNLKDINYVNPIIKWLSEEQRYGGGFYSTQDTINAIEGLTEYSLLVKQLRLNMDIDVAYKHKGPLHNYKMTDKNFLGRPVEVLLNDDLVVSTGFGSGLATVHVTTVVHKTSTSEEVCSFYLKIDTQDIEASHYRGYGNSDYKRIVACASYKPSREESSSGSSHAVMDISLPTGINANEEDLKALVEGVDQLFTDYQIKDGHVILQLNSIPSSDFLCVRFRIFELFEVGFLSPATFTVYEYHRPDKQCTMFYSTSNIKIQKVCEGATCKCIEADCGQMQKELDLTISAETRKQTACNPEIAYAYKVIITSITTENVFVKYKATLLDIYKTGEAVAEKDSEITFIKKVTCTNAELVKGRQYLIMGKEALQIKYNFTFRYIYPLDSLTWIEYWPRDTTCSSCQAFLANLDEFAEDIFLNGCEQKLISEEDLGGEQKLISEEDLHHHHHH
Method: as §1, §2

100 nM Human C5 Bound (RU) (Human C5 [1]): 145 RU
Kd (Human C5 [1]): 0.103 nM
koff (Human C5 [1]): 0.000107 s⁻¹
kon (Human C5 [1]): 1.04e+06 M⁻¹ s⁻¹
t½ (Human C5 [1]): 1.8 h
100 nM Human C5 Bound (RU) (Human C5 [2]): 118 RU
Kd (Human C5 [2]): 0.0731 nM
koff (Human C5 [2]): 7.13e-05 s⁻¹
kon (Human C5 [2]): 975000 M⁻¹ s⁻¹
t½ (Human C5 [2]): 2.7 h
100 nM monkey C5-mmh Bound (RU) (monkey C5-mmh): 116 RU
Kd (monkey C5-mmh): 0.133 nM
koff (monkey C5-mmh): 4.69e-05 s⁻¹
kon (monkey C5-mmh): 354000 M⁻¹ s⁻¹
t1/2 (monkey C5-mmh): 4.1 h
B1: H4H12159P (antibody, human IgG4, V domains shown)
VH: QVQLVESGGGVVQPGRSLRLSCGASGFTFSTYGMHWVRQAPGKGLEWVAVIWDDGNNKYYADSVKGRFTISRDNSKNTLYLQMNSLRAEDTAVYYCARDSEVAPVGDYWGQGTLVTVSS
VL: DIQMTQSPSTLSASVGDRVTIICRASQSINRWLAWYQQKPGKAPKLLIYKASSLESGVPSRFSGSGSGTEFTLTISSLQPDDFAAYYCQQYNDYSYTFGQGTKLEIK

100 nM Human C5 Bound (RU) (Human C5 [1]): 65 RU
Kd (Human C5 [1]): 3.06 nM
koff (Human C5 [1]): 0.000352 s⁻¹
kon (Human C5 [1]): 115000 M⁻¹ s⁻¹
t½ (Human C5 [1]): 0.55 h
100 nM Human C5 Bound (RU) (Human C5 [2]): 18 RU
Kd (Human C5 [2]): 1.96 nM
koff (Human C5 [2]): 0.00044 s⁻¹
kon (Human C5 [2]): 224000 M⁻¹ s⁻¹
t½ (Human C5 [2]): 0.433 h
100 nM monkey C5-mmh Bound (RU) (monkey C5-mmh): 22 RU
Kd (monkey C5-mmh): 27.8 nM
koff (monkey C5-mmh): 0.00455 s⁻¹
kon (monkey C5-mmh): 164000 M⁻¹ s⁻¹
t1/2 (monkey C5-mmh): 0.05 h
B2: H4H12169P (antibody, human IgG4, V domains shown)
VH: EVQLVESGGGLAQPGGSLRLSCAASGFTFRSYAMSWVRQAPGKGPEWVSGIGGNGVTTYYADSVKGRFTISRDNSKNTLFLQMNSLRAEDTAVYYCVQGGLGGYFTGYWGQGTLVTVSS
VL: DIQMTQSPSSLSASVGDRVTITCRASQSISTYLNWYQQNPGKAPKLLIFDASSLQSGVPSRFSGSGSGTDFTLTIRGLQPEDFATYYCQQSYSAPLTFGGGTKVEIK

100 nM Human C5 Bound (RU) (Human C5 [1]): 153 RU
Kd (Human C5 [1]): 0.295 nM
koff (Human C5 [1]): 0.000381 s⁻¹
kon (Human C5 [1]): 1.29e+06 M⁻¹ s⁻¹
t½ (Human C5 [1]): 0.5 h
100 nM Human C5 Bound (RU) (Human C5 [2]): 116 RU
Kd (Human C5 [2]): 0.121 nM
koff (Human C5 [2]): 0.000131 s⁻¹
kon (Human C5 [2]): 1.09e+06 M⁻¹ s⁻¹
t½ (Human C5 [2]): 1.47 h
100 nM monkey C5-mmh Bound (RU) (monkey C5-mmh): 111 RU
Kd (monkey C5-mmh): 0.315 nM
koff (monkey C5-mmh): 0.000132 s⁻¹
kon (monkey C5-mmh): 419000 M⁻¹ s⁻¹
t1/2 (monkey C5-mmh): 1.47 h
B3: H4H12167P (antibody, human IgG4, V domains shown)
VH: QVQLVESGGGLVKPGGSLRLSCAASGFTFSDSYMSWIRQAPGKGLEWISYIGSSGNTFYYADSVKGRFTISRDNANNLLYLQMTSLRAEDTAVYYCAREEGDFWSAVDSWGQGTLVTVSS
VL: DIQLTQSPSFLSASVGDRVTITCWASQGISSYLAWYQQKPGKAPKLLIHTASTLQSGVPSRFSGSGSGTEFTLTISNLQPEDFATYYCQQLNSYPFTFGPGTKVDIK

100 nM Human C5 Bound (RU) (Human C5 [1]): 71 RU
Kd (Human C5 [1]): 1.59 nM
koff (Human C5 [1]): 0.000234 s⁻¹
kon (Human C5 [1]): 147000 M⁻¹ s⁻¹
t½ (Human C5 [1]): 0.817 h
100 nM Human C5 Bound (RU) (Human C5 [2]): 96 RU
Kd (Human C5 [2]): 0.201 nM
koff (Human C5 [2]): 6.75e-05 s⁻¹
kon (Human C5 [2]): 336000 M⁻¹ s⁻¹
t½ (Human C5 [2]): 2.85 h
100 nM monkey C5-mmh Bound (RU) (monkey C5-mmh): 69 RU
Kd (monkey C5-mmh): 0.322 nM
koff (monkey C5-mmh): 5.88e-05 s⁻¹
kon (monkey C5-mmh): 182000 M⁻¹ s⁻¹
t1/2 (monkey C5-mmh): 3.27 h
B4: H4H12176P2 (antibody, human IgG4, V domains shown)
VH: EVQLVESGGGLVQPGGSLRLSCAASGFHSNRYWMDWVRQAPGKGLEWVANIKQDGSEENYVDSVKGRFTISRDNAKNSLYLQMNSLRAEDTAVYYCARDRSTSWVPYWFFDLWGRGTLVTVSS
VL: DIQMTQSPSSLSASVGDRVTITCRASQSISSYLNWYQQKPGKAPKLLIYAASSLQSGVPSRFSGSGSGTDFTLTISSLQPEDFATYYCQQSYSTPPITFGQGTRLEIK
